Target: the molecule itself
Assay: SEC-MALS; multi-angle laser light scattering after Superdex 200 10/30 in buffer A (150 mM NaCl, 50 mM Tris/HCl, pH 7.4); DAWN EOS photometer, Optilab rEX refractor

Row | Protein | stoichiometry N
1 | Erv1 W183F (enzyme, S. cerevisiae, UniProt P27882 1-189, looked up, Erv1, Saccharomyces cerevisiae, 189 amino acids, full length, with W183F; Made by site-directed mutagenesis on the construct of m1; FAD content 71% as purified; source: E. coli Rosetta-gami 2, purified (Ni2+ resin, gel filtration)) MKAIDKMTDNPPQEGLSGRKIIYDEDGKPCRSCNTLLDFQYVTGKISNGLKNLSSNGKLAGTGALTGEASELMPGSRTYRKVDPPDVEQLGRSSWTLLHSVAASYPAQPTDQQKGEMKQFLNIFSHIYPCNWCAKDFEKYIRENAPQVESREELGRWMCEAHNKVNKKLRKPKFDCNFWEKRFKDGWDE | 2

Target: the molecule itself
Assay: SEC; gel filtration on Superdex 200 10/30, 4°C, BAE (150 mM NaCl, 50 mM Tris/HCl, 1 mM EDTA, pH 7.4); oligomer state by elution position against the WT

Row | Protein | stoichiometry N
2 | Erv1 (essential for respiration and viability 1), wild type (enzyme, S. cerevisiae, UniProt P27882 1-189, looked up, Erv1, Saccharomyces cerevisiae, FAD-dependent thiol oxidase, 189 amino acids, full length; Construct in pET24a(+) (NdeI/XhoI); also called WT Erv1; WT; source: E. coli Rosetta-gami 2, purified (Ni2+ resin, gel filtration)) MKAIDKMTDNPPQEGLSGRKIIYDEDGKPCRSCNTLLDFQYVTGKISNGLKNLSSNGKLAGTGALTGEASELMPGSRTYRKVDPPDVEQLGRSSWTLLHSVAASYPAQPTDQQKGEMKQFLNIFSHIYPCNWCAKDFEKYIRENAPQVESREELGRWMCEAHNKVNKKLRKPKFDCNFWEKRWKDGWDE | 4
3 | Erv1 W187F (enzyme, S. cerevisiae, UniProt P27882 1-189, looked up, Erv1, Saccharomyces cerevisiae, 189 amino acids, full length, with W187F; Made by site-directed mutagenesis on the construct of m1; source: E. coli Rosetta-gami 2, purified (Ni2+ resin, gel filtration)) MKAIDKMTDNPPQEGLSGRKIIYDEDGKPCRSCNTLLDFQYVTGKISNGLKNLSSNGKLAGTGALTGEASELMPGSRTYRKVDPPDVEQLGRSSWTLLHSVAASYPAQPTDQQKGEMKQFLNIFSHIYPCNWCAKDFEKYIRENAPQVESREELGRWMCEAHNKVNKKLRKPKFDCNFWEKRWKDGFDE | 4
4 | Erv1 W132F (enzyme, S. cerevisiae, UniProt P27882 1-189, looked up, Erv1, Saccharomyces cerevisiae, 189 amino acids, full length, with W132F; Made by site-directed mutagenesis on the construct of m1; source: E. coli Rosetta-gami 2, purified (Ni2+ resin, gel filtration)) MKAIDKMTDNPPQEGLSGRKIIYDEDGKPCRSCNTLLDFQYVTGKISNGLKNLSSNGKLAGTGALTGEASELMPGSRTYRKVDPPDVEQLGRSSWTLLHSVAASYPAQPTDQQKGEMKQFLNIFSHIYPCNFCAKDFEKYIRENAPQVESREELGRWMCEAHNKVNKKLRKPKFDCNFWEKRWKDGWDE | 4
5 | Erv1 W179F (enzyme, S. cerevisiae, UniProt P27882 1-189, looked up, Erv1, Saccharomyces cerevisiae, 189 amino acids, full length, with W179F; Made by site-directed mutagenesis on the construct of m1; source: E. coli Rosetta-gami 2, purified (Ni2+ resin, gel filtration)) MKAIDKMTDNPPQEGLSGRKIIYDEDGKPCRSCNTLLDFQYVTGKISNGLKNLSSNGKLAGTGALTGEASELMPGSRTYRKVDPPDVEQLGRSSWTLLHSVAASYPAQPTDQQKGEMKQFLNIFSHIYPCNWCAKDFEKYIRENAPQVESREELGRWMCEAHNKVNKKLRKPKFDCNFFEKRWKDGWDE | 4
6 | Erv1 W157F (enzyme, S. cerevisiae, UniProt P27882 1-189, looked up, Erv1, Saccharomyces cerevisiae, 189 amino acids, full length, with W157F; Made by site-directed mutagenesis on the construct of m1; source: E. coli Rosetta-gami 2, purified (Ni2+ resin, gel filtration)) MKAIDKMTDNPPQEGLSGRKIIYDEDGKPCRSCNTLLDFQYVTGKISNGLKNLSSNGKLAGTGALTGEASELMPGSRTYRKVDPPDVEQLGRSSWTLLHSVAASYPAQPTDQQKGEMKQFLNIFSHIYPCNWCAKDFEKYIRENAPQVESREELGRFMCEAHNKVNKKLRKPKFDCNFWEKRWKDGWDE | 4
7 | Erv1 W95F (enzyme, S. cerevisiae, UniProt P27882 1-189, looked up, Erv1, Saccharomyces cerevisiae, 189 amino acids, full length, with W95F; Made by site-directed mutagenesis on the construct of m1; source: E. coli Rosetta-gami 2, purified (Ni2+ resin, gel filtration)) MKAIDKMTDNPPQEGLSGRKIIYDEDGKPCRSCNTLLDFQYVTGKISNGLKNLSSNGKLAGTGALTGEASELMPGSRTYRKVDPPDVEQLGRSSFTLLHSVAASYPAQPTDQQKGEMKQFLNIFSHIYPCNWCAKDFEKYIRENAPQVESREELGRWMCEAHNKVNKKLRKPKFDCNFWEKRWKDGWDE | 4
